In PMC7116892 (Science (New York, N.Y.), 2021):

Columns and labels:
[1] = target: Dyh5 (γ-HC), ODA heavy chain (Tetrahymena thermophila, UniProt I7M6H4 1-4168); test: cross-linking
[2] = target: Dyh3 (α-HC), ODA heavy chain (Tetrahymena thermophila, UniProt Q22A67 1-4620); test: cross-linking

B1: Q22MS1, recombinant, C-terminal 2xStrep (natural protein, Tetrahymena thermophila, UniProt Q22MS1 1-1892, looked up)
chain: MFQSYLQDIEKENNSSIYNAQAQQNSSTQQSIWDDYIDRQLEHLVVEYQFDFDKIAQRLAGVIGDKQQQKVNFDTCRQRWKQLHLRRYEDKDKDRLDRVSKSVMKMEDPNNALKVQELVEKLPKARQNKDFLKISDEEKLQAFYLNDKGEKIQPTTFNVLKDSVMGIKDKTERERVFKKQQEEFFKSLEKLAGEQDEDMFTKPLIFRAKFTEPTNFNFIVEREELTREQAQRIMSQKVQIKGAGLVPPEPEMGIKMDNYVSMFARPDEEEEELKKKDQEKEVQVNQQIMQDQQETKEEQERDQEELKKQMELTEEEKKKQQEQEEEKKKINVDLYLAERGLKSIDEALNSLEKMRSKVKVNNYFEEAQTEDKKLKEQKEKNQQKVDNEDQIRQEIIKQGLEQLKQKEQGDQLVQFHENQIKKDIKELNEIIGDNKSKNVKNQTQQPNKAVEEEEEIILEKKNDQSKKVPTKKGIFSQFAEEEDSGSEDEVGNDEEELDDELYLQAQRIGLKSDAEIDLFITKKKEERKANMLNKKKVQFSEFSEQKQISEDTDELLAKQEKQIKQKQQFLEKLKKKSENEAGENDESNQEGSQNWRDLEFSAGMAFKRQLEEEKMQRMIKEQFEEEQRRKADQERIRQIQEEYHLKKLDIETKIKLREPLNLEKVNQEKWKEYIEAQQKRREEIEKEFEEKQRIQTEQEEKEQKENLIKEKIHFFEQKIKNFPSNDPFKCFFDDQVSYLSQISSLPSKITTKIADLKKYDISRDGITSRYQILIFPYLDKCQEFVFQFLSFFLRNSFFRQPPSEKELGEIVSENPLDEIPCQRLSSKGFPFCLVSFYIGSHTSEINDEQDEQYLSNYLNDAIKFDKLINDDKLQKSIYLFFDTYIGRGQDTLSKQLDLALTEFLSDGCLDQAIRKYGEKVINRDMKLSDFKTAYYKNMEIAKKLFNESNTFHSICPTKTSYHQTNQLAIHQNKKKQLLPTSPSNSPSIISHSHGNKWETSVIIIRNYSEIQNPSALRQQQNRGVDFSNASDLMQQDVTTEQYSNLSESLSNLVPSHTEISQRQKQQMTDVIHYTLNKLQEKGIQILGMKSFFFDQKTVQEFKSYVENINFNTNTNQPIVVISVAGFDLHSKLKKMVGSEDAQLAKRVEPNSLNALFSTGRDDSIIIPYNKALSRRLISYFFCGRLEKIQTVQDIQVIEGLTNKKQLYLTKPKPFNPVFLLNSQPIREHICLLSSKFLPQQFCEVIRKIQARGFELLNIRVIDSSNLSAILKKDEDFSAFIENENLQELNSGENDYERINLVLHIQGANISSLRNTLLNKIIDYNPFLHPSKREIFYYTKDDLSLTLLKDIFFNRHIKSNFTPSERFPLFIALWPFLNDYEEKEGLTASQAVPLGNDLKIMSSYGLELLSVSKIFKSQIQQKLNTSIEEETEHVDLKSILHQLIQNNIQINSITKKKPEFSTFCSRLGEEILSQDFYLAVFRYQGDRQSKHLDKLFTEVPFVHSNKTINESTVVTHGAKQTPHTQAKPLPTEFLTLFFLDSSAQQVSNFTKLLGIGAFDDWSFKGSFIFDLPSSGYTGEIETLIILSEDVVKTLLLVGLVKIIENNQFKIKSFFKHRCSREFSEVIQENLLQAFSGYESQMHDQGTKLQKIKASLDNLMTRLQGESMYFLVLSKENGIFNGKKILFELAEKYSVFKKETINVESSTEYMLDKGMYCSLNYKCQQREFKELQFMSQQILSMAHENNQEQQDVDKMYDNQLVMVIRIDQQIQLYEVFRKLQSDLKFKIIHFLVMRQFEWTDIQYISSHFTPKFEAQHIQKYFEINNDGIYCIVHLDSKNSVSLSDAFGTLRLNEKGEFKQVIRSSLFGKQEVFFIYTNNPQHVKKLSAYAFKSSE
- binding result [1]: binds
- binding result [2]: binds
